According to article doi:10.1101/2021.04.13.439655:

Molecular target: full-length Smad2, wild type (S2FLWT), Q15796
Test: SAXS with ensemble optimization method
Settings: remark: other sources report otherwise

percent of the population as dimer at 56 μM: 18% | percent of the population as trimer at 13.8 μM: 1% | percent of the population as trimer at 56.1 μM: 16.4%
B1: full-length Smad2, wild type (S2FLWT), Q15796 1-467 (natural protein)
chain: MSSILPFTPPVVKRLLGWKKSAGGSGGAGGGEQNGQEEKWCEKAVKSLVKKLKKTGRLDELEKAITTQNCNTKCVTIPSTCSEIWGLSTPNTIDQWDTTGLYSFSEQTRSLDGRLQVSHRKGLPHVIYCRLWRWPDLHSHHELKAIENCEYAFNLKKDEVCVNPYHYQRVETPVLPPVLVPRHTEILTELPPLDDYTHSIPENTNFPAGIEPQSNYIPETPPPGYISEDGETSDQQLNQSMDTGSPAELSPTTLSPVNHSLDLQPVTYSEPAFWCSIAYYELNQRVGETFHASQPSLTVDGFTDPSNSERFCLGLLSNVNRNATVEMTRRHIGRGVRLYYIGGEVFAECLSDSAIFVQSPNCNQRYGWHPATVCKIPPGCNLKIFNNQEFAALLAQSVNQGFEAVYQLTRMCTIRMSFVKGWGAEYRRQTVTSTPCWIELHLNGPLQWLDKVLTQMGSPSVRCSSMS
